This assay deals with T1, rROBO4−ECD (ヒトROBO4細胞外領域ポリペプチド) (human, UniProt Q8WZ75 28-461).
T1 construct: It was cloned in pEF6/V5-His-TOPO; also called ヒトROBO4−ECD; rROBO4-ECD
T1 sequence: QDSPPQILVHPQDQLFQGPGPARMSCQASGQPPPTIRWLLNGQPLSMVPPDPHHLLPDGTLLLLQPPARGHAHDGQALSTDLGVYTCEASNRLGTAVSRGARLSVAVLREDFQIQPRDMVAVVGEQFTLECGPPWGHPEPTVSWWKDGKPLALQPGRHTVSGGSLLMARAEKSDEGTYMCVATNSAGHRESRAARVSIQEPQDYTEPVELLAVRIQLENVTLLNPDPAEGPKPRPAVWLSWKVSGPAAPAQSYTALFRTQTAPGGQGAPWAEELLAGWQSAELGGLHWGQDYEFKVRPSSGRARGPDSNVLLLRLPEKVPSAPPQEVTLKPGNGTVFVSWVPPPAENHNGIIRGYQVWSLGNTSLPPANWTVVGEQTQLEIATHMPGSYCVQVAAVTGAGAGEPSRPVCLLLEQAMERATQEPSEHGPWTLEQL
The assay can be described thus: SPR, Biacore 3000; antibody captured by anti-human IgG on CM5 chip, rROBO4-ECD (0.1-200 nM) as analyte, 1:1 model.

Where a chain is given by its changes, count along the chain named.

B1: ヒト化MAb1抗体 H−1140 (antibody, human IgG2, kappa, V domains shown)
VH: EVQLVESGGGLVQPGGSLRLSCAASGFTFSTYAMSWVRQAPGKGLEWVATISQGGTYTYYPDSVKGRFTISRDNAKNTLYLQMNSLRAEDTAVYYCARLIYYDYLDYWGQGTLVTVSS
VL: DIVMTQSPLSLPVTLGEPASISCRSSQSLENSNGNTYLNWYLQKPGQSPQLLIYRVSNRFSGVPDRFSGSGSGTDFTLKISRVEAEDVGVYYCLQVTHVPWTFGPGTKVDIKR
notes: Humanised IgG2 / kappa; also called H-1140; hMAb1-H2 / hMAb1-L1
By Kd is commonly meant the equilibrium constant for the complex coming apart. Lower therefore signals tighter binding. Molecule B1 registered a Kd of 3.9 nM.

B2: ヒト化MAb1抗体 H−1040 (antibody, human IgG2, kappa, V domains shown)
VH: B1 VH with Q53N
VL: B1 VL
notes: Humanised IgG2 / kappa; also called H-1040; hMAb1-H1 / hMAb1-L1
The molecule B2 came in with a Kd of 0.41 nM.

B3: ヒト化MAb1抗体 H−2040 (antibody, human IgG2, kappa, V domains shown)
VH: B1 VH with G44R, Q53N
VL: B1 VL
notes: Humanised IgG2 / kappa; also called H-2040; hMAb1-H3 / hMAb1-L1
On to B3, for which the affinity, expressed as Kd, was 0.4 nM.

The record behind these values is patent JP2014141434A (dated 2014).
